Measurements published in patent US20220064276A1 (SCHOLAR ROCK, published 2022).

Target: T1, human LTBP1-proTGFβ1 complex (human, UniProt Q14766 347-1721; P01137 30-390)
T1 construct: Large latent complex: one presenting molecule disulfide-linked to a proTGFβ1 dimer; also called Hu LTBP1-proTGFβ1; huLTBP1 proTGFβ1
Experiment: SPR Biacore 8K, Fab over captured antigen
Method: A Biacore 8K system was employed to determine the monovalent binding affinity and the kinetic parameters for antigen binding of test antibodies. Association and dissociation kinetics of Fab fragments SR-AB42-HuFab, SR-AB63-HuFab and SR-AB43-HuFab to antigen complexes were measured, and resulting ka, kd and KD are provided below. Briefly, the binding kinetics were evaluated by surface plasmon resonance using Biacore 8K (GE Healthcare). Biotinylated capture antigens were immobilized to the chip (10 nM, ˜200 RU loading). A Biotin CAPture sensor chip was used to capture the biotinylated antigens. […] 0 nM was used as a reference. […] 0 nM was used as a reference. Multi-cycle kinetics was employed where each analyte concentration was injected in a separate cycle and the sensor chip surface was regenerated after each cycle. A11 the assays were carried out in freshly prepared 1× HBS-EP+ buffer (10 mM HEPES, 150 mM NaCl, 3 mM EDTA, 0.05% Tween20, pH 7.4). Data were fit globally to a 1:1 binding model to obtain the kinetic parameters. The sensorgram for 0 nM analyte concentration was used as reference.

T1 sequence (Q14766 347-1721 limits assumed, chain 1 of 2): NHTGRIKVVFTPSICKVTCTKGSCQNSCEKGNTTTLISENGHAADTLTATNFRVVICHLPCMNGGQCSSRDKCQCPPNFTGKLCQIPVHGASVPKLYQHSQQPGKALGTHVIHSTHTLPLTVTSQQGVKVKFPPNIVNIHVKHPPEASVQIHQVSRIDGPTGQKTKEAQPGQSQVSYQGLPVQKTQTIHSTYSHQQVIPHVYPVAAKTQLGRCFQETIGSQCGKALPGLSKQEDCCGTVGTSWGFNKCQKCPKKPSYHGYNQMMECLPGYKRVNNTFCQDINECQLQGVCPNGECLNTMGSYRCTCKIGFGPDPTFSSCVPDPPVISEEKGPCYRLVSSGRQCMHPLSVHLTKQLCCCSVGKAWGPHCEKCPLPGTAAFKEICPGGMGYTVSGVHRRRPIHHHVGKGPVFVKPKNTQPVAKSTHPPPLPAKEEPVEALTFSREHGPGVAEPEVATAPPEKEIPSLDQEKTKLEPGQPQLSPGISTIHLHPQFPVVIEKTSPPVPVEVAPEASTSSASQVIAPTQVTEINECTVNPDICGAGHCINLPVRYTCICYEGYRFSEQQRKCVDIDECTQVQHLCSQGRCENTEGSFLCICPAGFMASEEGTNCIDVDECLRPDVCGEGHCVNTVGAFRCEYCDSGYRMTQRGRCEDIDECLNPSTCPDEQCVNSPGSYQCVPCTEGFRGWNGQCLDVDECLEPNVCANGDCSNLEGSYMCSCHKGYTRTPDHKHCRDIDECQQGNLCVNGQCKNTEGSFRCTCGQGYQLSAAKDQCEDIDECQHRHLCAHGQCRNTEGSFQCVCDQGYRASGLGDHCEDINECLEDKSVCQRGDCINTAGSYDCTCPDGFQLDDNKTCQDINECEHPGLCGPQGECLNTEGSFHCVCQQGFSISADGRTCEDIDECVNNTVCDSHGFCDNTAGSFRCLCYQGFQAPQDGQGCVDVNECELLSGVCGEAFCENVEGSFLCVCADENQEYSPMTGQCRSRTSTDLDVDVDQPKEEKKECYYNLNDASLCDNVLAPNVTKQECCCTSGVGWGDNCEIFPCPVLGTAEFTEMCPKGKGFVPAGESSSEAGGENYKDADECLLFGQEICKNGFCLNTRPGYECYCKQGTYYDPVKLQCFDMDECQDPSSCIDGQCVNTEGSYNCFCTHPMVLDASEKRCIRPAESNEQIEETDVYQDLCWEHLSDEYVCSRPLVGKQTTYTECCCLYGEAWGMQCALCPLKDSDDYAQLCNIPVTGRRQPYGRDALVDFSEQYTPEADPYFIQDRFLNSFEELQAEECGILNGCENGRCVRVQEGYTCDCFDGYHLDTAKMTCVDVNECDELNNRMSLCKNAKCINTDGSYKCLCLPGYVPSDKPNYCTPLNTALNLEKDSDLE
T1 sequence (P01137 30-390 limits assumed, chain 2 of 2): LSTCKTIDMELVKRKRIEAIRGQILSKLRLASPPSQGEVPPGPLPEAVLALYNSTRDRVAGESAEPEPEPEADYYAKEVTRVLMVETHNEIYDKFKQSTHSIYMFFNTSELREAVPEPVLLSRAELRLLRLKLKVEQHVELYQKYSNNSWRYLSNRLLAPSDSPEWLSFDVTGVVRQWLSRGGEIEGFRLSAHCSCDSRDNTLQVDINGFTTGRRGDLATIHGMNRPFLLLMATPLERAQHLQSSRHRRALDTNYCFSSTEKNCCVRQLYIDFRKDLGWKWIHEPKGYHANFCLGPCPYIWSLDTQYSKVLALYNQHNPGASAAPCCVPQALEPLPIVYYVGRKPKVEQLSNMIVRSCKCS

Binder | Kd | koff | kon
SR-AB46-HuFab (Fab, V domains shown, Human Fab; also called SR-AB46 Fab) VH: QVQLVESGGGVVQPGRSLRLSCAASGFTFRSYVMHWVRQAPGKGLEWVAVISHEGSGKYYADSVKGRFTISRDNSKNTLYLQMNSLRAEDTAVYYCARPRIAARRGGFGSWGQGTLVTVSS VL: NFMLTQPHSVSESPGKTVTISCTRSSGNIDYNYVQWYQQRPGSSPTTVIYEDNVRPSGVPDRFSGSIDSSSNSASLTISGLKTEDEADYYCQSYDSDNQRVVFGGGTKLTVL | 0.0444 nM | 0.00011 s⁻¹ | 2.47e+06 M⁻¹ s⁻¹
SR-AB48-HuFab (Fab, V domains shown, Human Fab; also called SR-AB48 Fab) VH: QVQLVESGGGVVQPGRSLRLSCAASGFTFRSYVMHWVRQAPGKGLEWVAVISHEGSGKYYADSVKGRFTISRDNSKNTLYLQMNSLRAEDTAVYYCARPRIAARRGGFGSWGQGTLVTVSS VL: NFMLTQPHSVSESPGKTVTISCTRSSGNIDYNYVQWYQQRPGSSPTTVIYEDNVRPSGVPDRFSGSIDSSSNSASLTISGLKTEDEADYYCQSYDYDTQGVVFGGGTKLTVL | 0.0593 nM | 0.000104 s⁻¹ | 1.76e+06 M⁻¹ s⁻¹
SR-AB50-HuFab (Fab, V domains shown, Human Fab; also called SR-AB50 Fab) VH: QVQLVESGGGVVQPGRSLRLSCAASGFTFRSYVMHWVRQAPGKGLEWVAVISHEGSGKYYADSVKGRFTISRDNSKNTLYLQMNSLRAEDTAVYYCARPRIAARRGGFGTWGQGTLVTVSS VL: NFMLTQPHSVSESPGKTVTISCTRSSGNIDYNYVQWYQQRPGSSPTTVIYEDNVRPSGVPDRFSGSIDSSSNSASLTISGLKTEDEADYYCQSYDSDNQRVVFGGGTKLTVL | 0.055 nM | 0.000182 s⁻¹ | 3.31e+06 M⁻¹ s⁻¹
SR-AB51-HuFab (Fab, V domains shown, Human Fab; also called SR-AB51 Fab) VH: QVQLVESGGGVVQPGRSLRLSCAASGFTFRSYVMHWVRQAPGKGLEWVAVISHEGSGKYYADSVKGRFTISRDNSKNTLYLQMNSLRAEDTAVYYCARPRIAARRGGFGTWGQGTLVTVSS VL: NFMLTQPHSVSESPGKTVTISCTRSSGNIDYNYVQWYQQRPGSSPTTVIYEDNVRPSGVPDRFSGSIDSSSNSASLTISGLKTEDEADYYCQSYDYDNQAVVFGGGTKLTVL | 0.0589 nM | 0.00015 s⁻¹ | 2.55e+06 M⁻¹ s⁻¹
SR-AB52-HuFab (Fab, V domains shown, Human Fab; also called SR-AB52 Fab) VH: QVQLVESGGGVVQPGRSLRLSCAASGFTFRSYVMHWVRQAPGKGLEWVAVISHEGSGKYYADSVKGRFTISRDNSKNTLYLQMNSLRAEDTAVYYCARPRIAARRGGFGTWGQGTLVTVSS VL: NFMLTQPHSVSESPGKTVTISCTRSSGNIDYNYVQWYQQRPGSSPTTVIYEDNVRPSGVPDRFSGSIDSSSNSASLTISGLKTEDEADYYCQSYDYDTQGVVFGGGTKLTVL | 0.0396 nM | 9.91e-05 s⁻¹ | 2.5e+06 M⁻¹ s⁻¹
SR-AB53-HuFab (Fab, V domains shown, Human Fab; also called SR-AB53 Fab) VH: QVQLVESGGGVVQPGRSLRLSCAASGFTFRSYVMHWVRQAPGKGLEWVAVISHEGSGKYYADSVKGRFTISRDNSKNTLYLQMNSLRAEDTAVYYCARPRIAARRGGFGTWGQGTLVTVSS VL: NFMLTQPHSVSESPGKTVTISCTRSSGNIDYNYVQWYQQRPGSSPTTVIYEDNVRPSGVPDRFSGSIDSSSNSASLTISGLKTEDEADYYCQGYDWDTQGVVFGGGTKLTVL | 0.0707 nM | 0.000128 s⁻¹ | 1.82e+06 M⁻¹ s⁻¹
SR-AB54-HuFab (Fab, V domains shown, Human Fab; also called SR-AB54 Fab) VH: QVQLVESGGGVVQPGRSLRLSCAASGFTFRSYVMHWVRQAPGKGLEWVAVISHEGSGKYYADSVKGRFTISRDNSKNTLYLQMNSLRAEDTAVYYCALPRIAARRGGFGSWGQGTLVTVSS VL: NFMLTQPHSVSESPGKTVTISCTRSSGNIDYNYVQWYQQRPGSSPTTVIYEDNVRPSGVPDRFSGSIDSSSNSASLTISGLKTEDEADYYCQSYDSDNQRVVFGGGTKLTVL | 0.0491 nM | 8.83e-05 s⁻¹ | 1.8e+06 M⁻¹ s⁻¹
SR-AB55-HuFab (Fab, V domains shown, Human Fab; also called SR-AB55 Fab) VH: QVQLVESGGGVVQPGRSLRLSCAASGFTFRSYVMHWVRQAPGKGLEWVAVISHEGSGKYYADSVKGRFTISRDNSKNTLYLQMNSLRAEDTAVYYCALPRIAARRGGFGSWGQGTLVTVSS VL: NFMLTQPHSVSESPGKTVTISCTRSSGNIDYNYVQWYQQRPGSSPTTVIYEDNVRPSGVPDRFSGSIDSSSNSASLTISGLKTEDEADYYCQSYDYDNQAVVFGGGTKLTVL | 0.131 nM | 0.000113 s⁻¹ | 862000 M⁻¹ s⁻¹
